Experimental findings from paper doi:10.1101/2020.05.08.085126 are described below.

Data set [1] concerns the target T1, His-MBP-STF-HD (Medicago truncatula, UniProt G0ZGT3 85-190).
T1 sequence: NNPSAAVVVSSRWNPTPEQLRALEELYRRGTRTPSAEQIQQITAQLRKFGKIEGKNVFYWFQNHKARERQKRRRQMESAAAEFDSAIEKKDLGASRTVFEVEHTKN
The data set can be described thus: EMSA.

The target in data set [2] is T1, His-MBP-STF-HD. The experiment in a line: EMSA. This is another data set of the same source. (Mobility shift assays separate free from complexed probe on a gel.)

Like-named read-outs stand apart in the source and are kept apart here.

B1: MtLOB39 promoter P3 (dsDNA)
DNA 1: CTTTCAATTATACATTTTAATTAATATTAATTT
DNA 2: AAATTAATATTAATTAAAATGTATAATTGAAAG
With B1, in the data set with His-MBP-STF-HD [1], the binding result is given as “binds”.

B2: MtLOB38 promoter P1 (dsDNA)
DNA 1: AAAAAAAAATTATATATTAATAGTAATAAATAATAAAAAATAAT
DNA 2: ATTATTTTTTATTATTTATTACTATTAATATATAATTTTTTTTT
Turning to B2, the binding result with His-MBP-STF-HD [2] was “binds”.

B3: MtLOB38 promoter P2 (dsDNA)
DNA 1: TCAAATTTCAAATAGAATAAATTTGAAAGTGATAAATGATTAATTATTTT
DNA 2: AAAATAATTAATCATTTATCACTTTCAAATTTATTCTATTTGAAATTTGA
On to B3, for which the binding result with His-MBP-STF-HD [2] was “binds”.

B4: MtLOB39 promoter P1 (dsDNA)
DNA 1: GACCAATCAATGTTGAAAATGTAGAATATT
DNA 2: AATATTCTACATTTTCAACATTGATTGGTC
In the case of B4, the binding result with His-MBP-STF-HD [1] is reported as “binds”.

B5: MtLOB39 promoter P2 (dsDNA)
DNA 1: TATTCAAATTAATGATTTATTCAATTTT
DNA 2: AAAATTGAATAAATCATTAATTTGAATA
Consider B5, for which the binding result in the data set with His-MBP-STF-HD [1] is “binds”.
